Consider 3 proteins from publication PMC4010543.

The nature of data set [1]: TEPC-15 immunoblot, whole cell lysates. The note with it: control: wild-type pgl (disaccharide Ac-Gal-diNAcBac), same pilE copy number.
Data set [2] in a line: TEPC-15 immunoblot, pilF mutant lysates. Conditions: glycan gained; control: pglC pilF (no glycan). On the technique in general: Immunoblotting shows a protein as a band on a membrane.

B1: PilE: pglC null (protein)
parent chain: MNTLQKGFTLIELMIVIAIVGILAAVALPAYQDYTARAQVSEAILLAEGQKSAVTEYYLNHGKWPENNTSAGVASPPSDIKGKYVKEVEVKNGVVTATMLSSGVNNEIKGKKLSLWARRENGSVKWFCGQPVTRTDDDTVADAKDGKEIDTKHLPSTCRDNFDAK
As to B1, the “other: phosphocholine modification of PilE” value (“other … of PilE” below) in data set [1] (glycan lost) is “increases”.

B2: PilE: pglE ON (trisaccharide) in 2xpilE and 3xpilE (protein)
parent chain: MNTLQKGFTLIELMIVIAIVGILAAVALPAYQDYTARAQVSEAILLAEGQKSAVTEYYLNHGKWPENNTSAGVASPPSDIKGKYVKEVEVKNGVVTATMLSSGVNNEIKGKKLSLWARRENGSVKWFCGQPVTRTDDDTVADAKDGKEIDTKHLPSTCRDNFDAK
Turning to B2, the “other … of PilE” value in data set [1] (glycan changed form) is “decreases”.

B3: PilE: pglE ON pilF (trisaccharide) (protein)
parent chain: MNTLQKGFTLIELMIVIAIVGILAAVALPAYQDYTARAQVSEAILLAEGQKSAVTEYYLNHGKWPENNTSAGVASPPSDIKGKYVKEVEVKNGVVTATMLSSGVNNEIKGKKLSLWARRENGSVKWFCGQPVTRTDDDTVADAKDGKEIDTKHLPSTCRDNFDAK
In the case of B3, the “other … of PilE” value in data set [2] is “no change”.
